# Measured values reported in publication PMC5454392, “Selective BET bromodomain inhibition as an antifungal therapeutic strategy” (Nature Communications, 2017).
# Numbered stars: 1 amine (or outer) side, 2 acyl side, 3 side chain; on linkers, the order of the positions; unused ones are H or OH. Square brackets hold non-standard residues; d marks the D form. Ends that are not written are not given here. Arg(Me2a) = CN(C)C(=N)NCCC[C@H](N)C(=O)O; Kac = CC(=O)NCCCC[C@H](N[*:1])C(=O)[*:2]; Lys(Me3) = C[N+](C)(C)CCCC[C@H](N)C(=O)O; Arg(Me2s) = CN=C(NC)NCCC[C@H](N)C(=O)O; pT = C[C@@H](OP(=O)(O)O)[C@H](N)C(=O)O; pS = N[C@@H](COP(=O)(O)O)C(=O)O; Lys(Me) = CNCCCC[C@H](N)C(=O)O; Me2a = not defined here
# T1: CaBdf1 BD2 (GST-tagged, wild-type) (Candida albicans (strain SC5314 / ATCC …, UniProt Q5A4W8))
# T1 chain: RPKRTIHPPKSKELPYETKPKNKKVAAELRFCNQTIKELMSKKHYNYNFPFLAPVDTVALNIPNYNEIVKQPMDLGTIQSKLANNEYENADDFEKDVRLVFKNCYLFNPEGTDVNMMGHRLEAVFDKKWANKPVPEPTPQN
# T2: CaBdf1 BD1 (GST-tagged, wild-type) (Candida albicans (strain SC5314 / ATCC …, UniProt Q5A4W8))
# T2 chain: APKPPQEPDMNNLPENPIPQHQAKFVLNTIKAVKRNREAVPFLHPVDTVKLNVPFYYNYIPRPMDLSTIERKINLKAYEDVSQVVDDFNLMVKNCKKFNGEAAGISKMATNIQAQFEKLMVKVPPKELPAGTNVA
# Target: T1, CaBdf1 BD2 (GST-tagged, wild-type)
# Assay: histone peptide array (Active Motif MODified), 1 uM GST-tagged bromodomain, anti-GST detection, normalized mean intensity
row,Binder,binding score
1,A[Arg(Me2s)][pT]KQTARKSTGGKAPRKQ,0.00074
2,ARTKQTARKSTGGKAPRKQ (A Rme2s T Kac Q T A Rme2a Kac S T G G K A P R K Q),0.00851
3,A[Arg(Me2s)][pT]K(Me)QTARKSTGGKAPRKQ,0.0037
4,ARTKQTARKSTGGKAPRKQ (A Rme2s T Kme3 Q T A Rme2s Kme2 S T G G K A P R K Q),0.00407
5,PRKQLATKAARK(Ac)[pS]APATGG,0.00148
6,ARTKQTARKSTGGKAPRKQ (not fully specified),0.00259
7,ARTKQTARKSTGGKAPRKQ (A R T K Q T A R K pS T G G Kac A P R K Q),0.0107
8,A[Arg(Me2a)]T[Lys(Me)]QTAR[Kac]STGGKAPRKQ,0.00592
9,AR(Me2s)TK(Me)QTAR(Me2a)K(Me)STGGKAPRKQ (reading uncertain),0.00222
10,SGRGKGGKGLGKGGAKRHR (S G Rme2a G Kac G G K G L G K G G A K R H R),0.00703
11,ART[Lys(Me3)]QTARKSTGGKAPRKQ,0.00148
12,A[Arg(Me2s)]T[Lys(Me)]QTA[Arg(Me2a)][Lys(Me3)]STGGKAPRKQ,0.00592
13,PRKQLATKAAR(Me2a)K(Ac)[pS]APATGG (reading uncertain),0.00222
14,PDPAKSAPAPKKG[pS]KKAVT,0.00148
15,PDPAK(Ac)SAPAPKKGSKKAVT,0
16,ARTKQTARKSTGGKAPRKQ (A R T Kme2 Q T A Rme2s Kac S T G G K A P R K Q),0.00592
17,SGRGKGGKGLGKGGAKRHR (pS G R G Kac G G K G L G K G G A K R H R),0.00555
18,PRKQLATKAAR(Me2s)KSAPATGG,0.0037
19,ARTKQTARKSTGGKAPRKQ (A R T Kac Q T A Rme2a Kac S T G G K A P R K Q),0.0126
20,ARTK(Me)QTAR(me2s)K(Me)STGGKAPRKQ,0.00592
21,ARTKQTARKSTGGKAPRKQ (A R T K Q T A R K pS T G G K A P R K Q),0.00074
22,PRKQLATKAARKSAPATGG (P R K Q L A T K A A Rme2a Kme3 S A P A T G G),0.00703
23,ARTKQTARKSTGGKAPRKQ (A R T K Q T A R Kme3 pS T G G K A P R K Q),0.00333
24,PDPAK(Ac)SAPAPKKG[pS]K(Ac)KAVT,0.174
25,ARTKQTARKSTGGKAPRKQ (A Rme2a T Kac Q T A R Kme2 S T G G K A P R K Q),0.00407

# Target: T2, CaBdf1 BD1 (GST-tagged, wild-type)
# Assay: as above
row,Binder,binding score
1,A[Arg(Me2s)][pT]KQTARKSTGGKAPRKQ,0.00326
2,ARTKQTARKSTGGKAPRKQ (A Rme2s T Kac Q T A Rme2a Kac S T G G K A P R K Q),0.0573
3,A[Arg(Me2s)][pT]K(Me)QTARKSTGGKAPRKQ,0.00181
4,ARTKQTARKSTGGKAPRKQ (A Rme2s T Kme3 Q T A Rme2s Kme2 S T G G K A P R K Q),0.0029
5,PRKQLATKAARK(Ac)[pS]APATGG,0.0029
6,ARTKQTARKSTGGKAPRKQ (not fully specified),0
7,ARTKQTARKSTGGKAPRKQ (A R T K Q T A R K pS T G G Kac A P R K Q),0.0301
8,A[Arg(Me2a)]T[Lys(Me)]QTAR[Kac]STGGKAPRKQ,0.0359
9,AR(Me2s)TK(Me)QTAR(Me2a)K(Me)STGGKAPRKQ (reading uncertain),0.00435
10,SGRGKGGKGLGKGGAKRHR (S G Rme2a G Kac G G K G L G K G G A K R H R),0.0105
11,ART[Lys(Me3)]QTARKSTGGKAPRKQ,0.00399
12,A[Arg(Me2s)]T[Lys(Me)]QTA[Arg(Me2a)][Lys(Me3)]STGGKAPRKQ,0.0058
13,PRKQLATKAAR(Me2a)K(Ac)[pS]APATGG (reading uncertain),0.0058
14,PDPAKSAPAPKKG[pS]KKAVT,0.00326
15,PDPAK(Ac)SAPAPKKGSKKAVT,0.00363
16,ARTKQTARKSTGGKAPRKQ (A R T Kme2 Q T A Rme2s Kac S T G G K A P R K Q),0.0305
17,SGRGKGGKGLGKGGAKRHR (pS G R G Kac G G K G L G K G G A K R H R),0.0167
18,PRKQLATKAAR(Me2s)KSAPATGG,0.00616
19,ARTKQTARKSTGGKAPRKQ (A R T Kac Q T A Rme2a Kac S T G G K A P R K Q),0.0464
20,ARTK(Me)QTAR(me2s)K(Me)STGGKAPRKQ,0.00689
21,ARTKQTARKSTGGKAPRKQ (A R T K Q T A R K pS T G G K A P R K Q),0.00181
22,PRKQLATKAARKSAPATGG (P R K Q L A T K A A Rme2a Kme3 S A P A T G G),0.00363
23,ARTKQTARKSTGGKAPRKQ (A R T K Q T A R Kme3 pS T G G K A P R K Q),0.00363
24,PDPAK(Ac)SAPAPKKG[pS]K(Ac)KAVT,0.0656
25,ARTKQTARKSTGGKAPRKQ (A Rme2a T Kac Q T A R Kme2 S T G G K A P R K Q),0.0112
